Experimental data: paper PMC7414962, “Screening and Evaluation of New Hydroxymethylfurfural Oxidases for Furandicarboxylic Acid Production” (Applied and Environmental Microbiology, 2020)

Tests used:
[1] = target: T1, MetspHMFO^His (Methylovorus sp. MP688, UniProt E4QP00); experiment: UV-visible flavin spectrum; FAD release on heat denaturation; format: binding; details: 50 mM Tris-HCl, pH 7.0, 25°C; co-purified prosthetic group
T1 construct: gene MPQ_0130
T1 sequence (E4QP00 1-531): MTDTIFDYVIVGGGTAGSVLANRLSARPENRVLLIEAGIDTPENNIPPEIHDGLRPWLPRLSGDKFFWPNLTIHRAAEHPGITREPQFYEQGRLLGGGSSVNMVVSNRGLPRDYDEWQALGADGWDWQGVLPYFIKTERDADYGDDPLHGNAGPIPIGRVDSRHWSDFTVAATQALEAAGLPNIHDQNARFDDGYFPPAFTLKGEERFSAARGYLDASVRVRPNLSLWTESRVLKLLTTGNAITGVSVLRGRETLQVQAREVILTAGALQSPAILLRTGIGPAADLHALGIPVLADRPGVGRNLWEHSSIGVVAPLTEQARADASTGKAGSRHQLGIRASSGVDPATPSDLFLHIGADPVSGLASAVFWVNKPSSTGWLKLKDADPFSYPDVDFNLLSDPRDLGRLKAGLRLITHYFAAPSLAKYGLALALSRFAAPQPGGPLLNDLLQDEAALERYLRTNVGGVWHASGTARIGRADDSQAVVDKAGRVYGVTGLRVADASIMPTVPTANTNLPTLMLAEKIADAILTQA

[2] = target: T2, PseniHMFO^His (Pseudomonas nitroreducens, UniProt A0A6G6IPZ6); experiment: as above; format: binding; details: 50 mM Tris-HCl, pH 7.0, 25°C; co-purified prosthetic group
T2 construct: gene G5B91_01695
T2 sequence (A0A6G6IPZ6 1-531): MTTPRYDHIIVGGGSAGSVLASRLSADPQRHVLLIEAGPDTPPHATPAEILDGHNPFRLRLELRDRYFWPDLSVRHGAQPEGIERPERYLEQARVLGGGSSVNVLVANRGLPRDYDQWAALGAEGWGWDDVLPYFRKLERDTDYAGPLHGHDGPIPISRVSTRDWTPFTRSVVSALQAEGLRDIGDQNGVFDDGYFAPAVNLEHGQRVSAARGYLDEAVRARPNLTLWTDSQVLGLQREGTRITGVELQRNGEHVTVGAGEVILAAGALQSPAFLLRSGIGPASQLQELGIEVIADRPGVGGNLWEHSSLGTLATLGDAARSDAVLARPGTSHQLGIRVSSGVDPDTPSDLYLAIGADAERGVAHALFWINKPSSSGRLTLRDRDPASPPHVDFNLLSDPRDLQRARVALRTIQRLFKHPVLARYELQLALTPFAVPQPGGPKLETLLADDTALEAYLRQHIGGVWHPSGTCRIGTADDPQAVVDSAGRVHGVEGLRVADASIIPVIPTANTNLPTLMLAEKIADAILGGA

[3] = target: T3, MetspHMFO (Methylovorus sp. MP688, UniProt E4QP00); experiment: as above; format: binding; details: 50 mM Tris-HCl, pH 7.0, 25°C; co-purified prosthetic group
T3 construct: gene MPQ_0130
T3 sequence (E4QP00 1-531): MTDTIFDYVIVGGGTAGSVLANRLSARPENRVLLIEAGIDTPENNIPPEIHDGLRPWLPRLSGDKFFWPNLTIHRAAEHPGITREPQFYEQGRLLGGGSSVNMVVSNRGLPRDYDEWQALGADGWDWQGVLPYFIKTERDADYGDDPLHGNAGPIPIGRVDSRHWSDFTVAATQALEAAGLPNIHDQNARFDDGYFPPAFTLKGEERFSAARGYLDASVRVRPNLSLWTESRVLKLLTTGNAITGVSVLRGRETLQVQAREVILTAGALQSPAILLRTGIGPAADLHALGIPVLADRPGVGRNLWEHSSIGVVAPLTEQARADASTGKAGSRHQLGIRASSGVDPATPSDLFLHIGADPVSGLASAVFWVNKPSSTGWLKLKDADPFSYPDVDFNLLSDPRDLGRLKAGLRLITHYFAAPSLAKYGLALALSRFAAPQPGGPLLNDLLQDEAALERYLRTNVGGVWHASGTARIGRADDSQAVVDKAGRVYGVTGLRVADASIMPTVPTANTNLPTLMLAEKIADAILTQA

[4] = target: T4, PsespHMFO (Pseudomonas sp. 11/12A, UniProt Z9N8I9PR93); experiment: as above; format: binding; details: 50 mM Tris-HCl, pH 7.0, 25°C; co-purified prosthetic group
T4 sequence (Z9N8I9PR93 1-530): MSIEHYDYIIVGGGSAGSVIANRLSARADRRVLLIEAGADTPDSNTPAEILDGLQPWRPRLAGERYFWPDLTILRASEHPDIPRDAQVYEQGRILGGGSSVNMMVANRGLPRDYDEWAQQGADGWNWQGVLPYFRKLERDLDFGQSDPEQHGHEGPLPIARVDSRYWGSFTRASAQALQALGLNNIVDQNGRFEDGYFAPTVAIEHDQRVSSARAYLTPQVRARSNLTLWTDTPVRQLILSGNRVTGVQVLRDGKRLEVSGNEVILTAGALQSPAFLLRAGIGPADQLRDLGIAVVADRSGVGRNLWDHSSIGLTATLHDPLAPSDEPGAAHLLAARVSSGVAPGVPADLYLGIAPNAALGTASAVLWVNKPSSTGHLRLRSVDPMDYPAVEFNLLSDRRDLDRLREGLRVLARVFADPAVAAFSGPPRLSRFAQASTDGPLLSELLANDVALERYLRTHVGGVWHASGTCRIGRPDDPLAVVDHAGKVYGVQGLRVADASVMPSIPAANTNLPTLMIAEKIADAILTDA

[5] = substrate: O=Cc1ccc(CO)o1; experiment: purified protein; details: 50 mM Tris-HCl, pH 7.0, 25°C, O2
[6] = substrate: COc1cc(CO)ccc1O; experiment: steady-state, direct spectrophotometry of vanillin; format: biochemical, Methylovorus sp. MP688; details: 50 mM Tris-HCl, pH 7.0, 25°C, O2
Text: steady-state, direct spectrophotometry of vanillin on MetspHMFO

[7] = substrate: O=Cc1ccc(C=O)o1; experiment: HRP/AmplexRed-coupled H2O2 assay; format: biochemical, Methylovorus sp. MP688; details: 50 mM Tris-HCl, pH 7.0, 25°C, O2
Text: HRP/AmplexRed-coupled H2O2 assay on MetspHMFO

[8] = substrate: COc1cc(CO)ccc1O; experiment: steady-state, direct spectrophotometry of vanillin; format: biochemical, Methylovorus sp. MP688; details: 50 mM Tris-HCl, pH 7.0, 25°C, O2; remark: listed apart in the source
Text: steady-state, direct spectrophotometry of vanillin on MetspHMFO^His

[9] = substrate: O=Cc1ccc(C=O)o1; experiment: HRP/AmplexRed-coupled H2O2 assay; format: biochemical, Methylovorus sp. MP688; details: 50 mM Tris-HCl, pH 7.0, 25°C, O2; remark: listed apart in the source
Text: HRP/AmplexRed-coupled H2O2 assay on MetspHMFO^His

[10] = substrate: O=Cc1ccc(CO)o1; experiment: HRP/AmplexRed-coupled H2O2 assay; format: biochemical, Pseudomonas nitroreducens; details: 50 mM Tris-HCl, pH 7.0, 25°C, O2
Text: (§1) HRP/AmplexRed-coupled H2O2 assay on PseniHMFO^His

[11] = substrate: O=Cc1ccc(C=O)o1; experiment: HRP/AmplexRed-coupled H2O2 assay; format: biochemical, Pseudomonas nitroreducens; details: 50 mM Tris-HCl, pH 7.0, 25°C, O2
Text: as §1

[12] = substrate: COc1cc(CO)ccc1O; experiment: steady-state, direct spectrophotometry of vanillin; format: biochemical, Pseudomonas nitroreducens; details: 50 mM Tris-HCl, pH 10, 25°C, O2
Text: steady-state, direct spectrophotometry of vanillin on PseniHMFO^His

With `Cc1cc2nc3c(=O)[nH]c(=O)nc-3n(C[C@H](O)[C@H](O)[C@H](O)COP(=O)(O)OP(=O)(O)OC[C@H]3O[C@@H](n4cnc5c(N)ncnc54)[C@H](O)[C@@H]3O)c2cc1C` [FAD] the “UV-visible flavin spectrum; FAD release on heat denaturation” value (“UV-visible flavin spectrum; FAD release” for short) [1] was “The enzymes showed UV-visible spectra characteristic of FAD-containing proteins”, the “UV-visible flavin spectrum; FAD release” value [2] was “The enzymes showed UV-visible spectra characteristic of FAD-containing proteins” and the “UV-visible flavin spectrum; FAD release” value [3] was “The enzymes showed UV-visible spectra characteristic of FAD-containing proteins”. The “UV-visible flavin spectrum; FAD release” value [4] was “The enzymes showed UV-visible spectra characteristic of FAD-containing proteins”.

B1: MetspHMFO (Methylovorus sp. MP688) (protein)
chain: MTDTIFDYVIVGGGTAGSVLANRLSARPENRVLLIEAGIDTPENNIPPEIHDGLRPWLPRLSGDKFFWPNLTIHRAAEHPGITREPQFYEQGRLLGGGSSVNMVVSNRGLPRDYDEWQALGADGWDWQGVLPYFIKTERDADYGDDPLHGNAGPIPIGRVDSRHWSDFTVAATQALEAAGLPNIHDQNARFDDGYFPPAFTLKGEERFSAARGYLDASVRVRPNLSLWTESRVLKLLTTGNAITGVSVLRGRETLQVQAREVILTAGALQSPAILLRTGIGPAADLHALGIPVLADRPGVGRNLWEHSSIGVVAPLTEQARADASTGKAGSRHQLGIRASSGVDPATPSDLFLHIGADPVSGLASAVFWVNKPSSTGWLKLKDADPFSYPDVDFNLLSDPRDLGRLKAGLRLITHYFAAPSLAKYGLALALSRFAAPQPGGPLLNDLLQDEAALERYLRTNVGGVWHASGTARIGRADDSQAVVDKAGRVYGVTGLRVADASIMPTVPTANTNLPTLMLAEKIADAILTQA
B1 showed a Km [5] of 9.1 ± 0.7 mM, a kcat [5] of 1.38 ± 0.0267 s⁻¹ and a Km [6] of 0.5 ± 0.1 mM. For the same molecule, the kcat [6] was 19.5 ± 1.33 s⁻¹, the Km [7] was 6.8 ± 0.6 mM and the kcat [7] was 0.102 ± 0.0033 s⁻¹.

B2: MetspHMFO^His (Methylovorus sp. MP688) (protein)
chain: MTDTIFDYVIVGGGTAGSVLANRLSARPENRVLLIEAGIDTPENNIPPEIHDGLRPWLPRLSGDKFFWPNLTIHRAAEHPGITREPQFYEQGRLLGGGSSVNMVVSNRGLPRDYDEWQALGADGWDWQGVLPYFIKTERDADYGDDPLHGNAGPIPIGRVDSRHWSDFTVAATQALEAAGLPNIHDQNARFDDGYFPPAFTLKGEERFSAARGYLDASVRVRPNLSLWTESRVLKLLTTGNAITGVSVLRGRETLQVQAREVILTAGALQSPAILLRTGIGPAADLHALGIPVLADRPGVGRNLWEHSSIGVVAPLTEQARADASTGKAGSRHQLGIRASSGVDPATPSDLFLHIGADPVSGLASAVFWVNKPSSTGWLKLKDADPFSYPDVDFNLLSDPRDLGRLKAGLRLITHYFAAPSLAKYGLALALSRFAAPQPGGPLLNDLLQDEAALERYLRTNVGGVWHASGTARIGRADDSQAVVDKAGRVYGVTGLRVADASIMPTVPTANTNLPTLMLAEKIADAILTQA
Molecule B2 has a Km [5] of 6.8 ± 0.8 mM, a kcat [5] of 1.61 ± 0.0633 s⁻¹ and a Km [8] of 0.6 ± 0.03 mM. The kcat [8] was 19.83 ± 0.833 s⁻¹, the Km [9] was 4.8 ± 1.9 mM and the kcat [9] was 0.0417 ± 0.005 s⁻¹.

B3: PseniHMFO^His (Pseudomonas nitroreducens) (protein)
chain: MTTPRYDHIIVGGGSAGSVLASRLSADPQRHVLLIEAGPDTPPHATPAEILDGHNPFRLRLELRDRYFWPDLSVRHGAQPEGIERPERYLEQARVLGGGSSVNVLVANRGLPRDYDQWAALGAEGWGWDDVLPYFRKLERDTDYAGPLHGHDGPIPISRVSTRDWTPFTRSVVSALQAEGLRDIGDQNGVFDDGYFAPAVNLEHGQRVSAARGYLDEAVRARPNLTLWTDSQVLGLQREGTRITGVELQRNGEHVTVGAGEVILAAGALQSPAFLLRSGIGPASQLQELGIEVIADRPGVGGNLWEHSSLGTLATLGDAARSDAVLARPGTSHQLGIRVSSGVDPDTPSDLYLAIGADAERGVAHALFWINKPSSSGRLTLRDRDPASPPHVDFNLLSDPRDLQRARVALRTIQRLFKHPVLARYELQLALTPFAVPQPGGPKLETLLADDTALEAYLRQHIGGVWHPSGTCRIGTADDPQAVVDSAGRVHGVEGLRVADASIIPVIPTANTNLPTLMLAEKIADAILGGA
Work on B3 yielded a Km [10] of 5.1 ± 1.1 mM, a kcat [10] of 0.238 ± 0.015 s⁻¹ and a Km [11] of 4.8 ± 1.9 mM. The kcat [11] was 0.0167 ± 0.0017 s⁻¹ and the Km [12] was 0.8 ± 0.2 mM.
